Measured values published in US20120316071A1 (published 2012).

Tests used:
[1] = target: T1, rHuman IGF-1 sR (insulin-like growth factor-1 soluble receptor), CF (R&D Systems Cat#391-GR) (human, UniProt P08069 31-932); test: ECL multispot (MSD), antigen spotted, Fab in solution; blank spot 356
T1 construct: Bought soluble receptor

[2] = target: T2, rHuman HGF R/c-MET/Fc Chimera, CF (R&D Systems Cat#358-MT/CF) (human, UniProt P08581 25-932); test: as above
T2 construct: Bought reagent; also called HGF R/Fc
T2 sequence (P08581 25-932, change not shown): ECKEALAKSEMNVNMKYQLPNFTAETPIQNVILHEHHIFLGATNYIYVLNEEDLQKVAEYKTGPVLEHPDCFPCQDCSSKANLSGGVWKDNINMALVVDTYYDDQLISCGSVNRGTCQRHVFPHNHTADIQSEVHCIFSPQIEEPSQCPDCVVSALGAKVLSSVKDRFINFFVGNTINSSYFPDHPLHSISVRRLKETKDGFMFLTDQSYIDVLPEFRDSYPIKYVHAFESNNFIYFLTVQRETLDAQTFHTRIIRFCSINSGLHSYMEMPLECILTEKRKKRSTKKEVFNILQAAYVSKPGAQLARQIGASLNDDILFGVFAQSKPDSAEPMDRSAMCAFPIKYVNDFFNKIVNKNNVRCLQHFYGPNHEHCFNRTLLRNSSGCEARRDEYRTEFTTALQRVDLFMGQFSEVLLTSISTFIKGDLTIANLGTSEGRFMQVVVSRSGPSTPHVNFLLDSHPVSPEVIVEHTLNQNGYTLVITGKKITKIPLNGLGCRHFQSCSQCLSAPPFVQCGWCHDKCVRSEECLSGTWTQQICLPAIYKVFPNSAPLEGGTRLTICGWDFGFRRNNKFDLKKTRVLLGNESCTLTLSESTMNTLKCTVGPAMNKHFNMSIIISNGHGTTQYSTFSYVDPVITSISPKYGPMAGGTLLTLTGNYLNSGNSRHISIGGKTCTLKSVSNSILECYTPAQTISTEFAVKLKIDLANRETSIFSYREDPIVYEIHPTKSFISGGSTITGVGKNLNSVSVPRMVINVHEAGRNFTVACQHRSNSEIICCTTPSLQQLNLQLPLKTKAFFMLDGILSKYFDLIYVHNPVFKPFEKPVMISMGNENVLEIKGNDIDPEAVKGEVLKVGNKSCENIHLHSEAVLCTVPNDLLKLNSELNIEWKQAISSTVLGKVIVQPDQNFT

[3] = target: T3, Recombinant Human DLL4 (R&D Systems Cat#1506-D4/CF) (human, UniProt Q9NR61 27-524); test: as above
T3 construct: Bought recombinant protein; also called delta-like protein 4; rHuman DLL4

[4] = target: T4, rHuman Notch-1/Fc Chimera, CF (R&D Systems Cat#3647-TK) (human, UniProt P46531 19-526); test: as above
T4 construct: Bought reagent

[5] = target: T5, rHuman ErbB2/Fc Chimera, CF (R&D Systems Cat#1129-ER) (human, UniProt P04626 23-652); test: as above
T5 construct: Bought reagent

[6] = target: T6, rHuman CD44/Fc Chimera, CF (R&D Systems Cat#3660-CD) (human, UniProt P16070 21-220); test: as above
T6 construct: Bought reagent

[7] = target: T7, rHuman EGF R/Fc Chimera, CF (R&D Systems Cat#344-ER) (human, UniProt P00533 25-645); test: as above
T7 construct: Bought reagent

[8] = target: T8, rHuman Erythropoietin R/Fc Chimera, CF (R&D Systems Cat#963-ER) (human, UniProt P19235 25-250); test: as above
T8 construct: Bought reagent; also called EPO R; Epo R/Fc
T8 sequence (looked up): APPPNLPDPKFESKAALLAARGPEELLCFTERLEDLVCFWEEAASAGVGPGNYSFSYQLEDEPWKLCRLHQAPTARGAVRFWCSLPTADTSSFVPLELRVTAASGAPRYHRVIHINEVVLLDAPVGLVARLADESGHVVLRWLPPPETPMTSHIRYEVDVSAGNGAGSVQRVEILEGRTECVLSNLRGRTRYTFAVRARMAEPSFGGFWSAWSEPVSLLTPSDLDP

[9] = target: T9, rHuman P-Cadherin/Fc Chimera, CF (R&D Systems Cat#861-PC) (human, UniProt P22223 108-654); test: as above
T9 construct: Bought reagent

[10] = target: T1, rHuman IGF-1 sR (insulin-like growth …); test: ECL multispot (MSD), antigen spotted, Fab in solution; blank spot 289
[11] = target: T2, rHuman HGF R/c-MET/Fc Chimera, CF (R&D …); test: as above
[12] = target: T3, Recombinant Human DLL4 (R&D Systems …); test: as above
[13] = target: T4, rHuman Notch-1/Fc Chimera, CF (R&D …); test: as above
[14] = target: T5, rHuman ErbB2/Fc Chimera, CF (R&D …); test: as above
[15] = target: T6, rHuman CD44/Fc Chimera, CF (R&D Systems …); test: as above
[16] = target: T7, rHuman EGF R/Fc Chimera, CF (R&D …); test: as above
[17] = target: T8, rHuman Erythropoietin R/Fc Chimera, CF …; test: as above
[18] = target: T9, rHuman P-Cadherin/Fc Chimera, CF (R&D …); test: as above
[19] = target: T1, rHuman IGF-1 sR (insulin-like growth …); test: ECL multispot (MSD), antigen spotted, Fab in solution; blank spot 272
[20] = target: T2, rHuman HGF R/c-MET/Fc Chimera, CF (R&D …); test: as above
[21] = target: T3, Recombinant Human DLL4 (R&D Systems …); test: as above
[22] = target: T4, rHuman Notch-1/Fc Chimera, CF (R&D …); test: as above
[23] = target: T5, rHuman ErbB2/Fc Chimera, CF (R&D …); test: as above
[24] = target: T6, rHuman CD44/Fc Chimera, CF (R&D Systems …); test: as above
[25] = target: T7, rHuman EGF R/Fc Chimera, CF (R&D …); test: as above
[26] = target: T8, rHuman Erythropoietin R/Fc Chimera, CF …; test: as above
[27] = target: T9, rHuman P-Cadherin/Fc Chimera, CF (R&D …); test: as above
[28] = target: T1, rHuman IGF-1 sR (insulin-like growth …); test: ECL multispot (MSD), antigen spotted, Fab in solution; blank spot 198
[29] = target: T2, rHuman HGF R/c-MET/Fc Chimera, CF (R&D …); test: as above
[30] = target: T3, Recombinant Human DLL4 (R&D Systems …); test: as above
[31] = target: T4, rHuman Notch-1/Fc Chimera, CF (R&D …); test: as above
[32] = target: T5, rHuman ErbB2/Fc Chimera, CF (R&D …); test: as above
[33] = target: T6, rHuman CD44/Fc Chimera, CF (R&D Systems …); test: as above
[34] = target: T7, rHuman EGF R/Fc Chimera, CF (R&D …); test: as above
[35] = target: T8, rHuman Erythropoietin R/Fc Chimera, CF …; test: as above
[36] = target: T9, rHuman P-Cadherin/Fc Chimera, CF (R&D …); test: as above

B1: Fab VH1-46_IGHD6-6*01_IGHJ1*01 S102A/S103P/S104F/H111F (APFF) & L6_IGKJ1*01 S30A (Fab, V domains shown)
VH: QVQLVQSGAEVKKPGASVKVSCKASGYTFTSYYMHWVRQAPGQGLEWMGIINPSGGSTSYAQKFQGRVTMTRDTSTSTVYMELSSLRSEDTAVYYCAREEYAPFSAEYFQFWGQGTLVTVSS
VL: EIVLTQSPATLSLSPGERATLSCRASQSVASYLAWYQQKPGQAPRLLIYDASNRATGIPARFSGSGSGTDFTLTISSLEPEDFAVYYCQQRSNWPPWTFGQGTKVEIKR
notes: Tested as Fab made in E. coli: VH joined to CH1 from Plasmid A (His6 and Flag tags), VL joined to kappa CL from Plasmid C; also called APFF / S30A
- ECL signal [1]: 400
- ECL signal [2]: 414
- ECL signal [3]: 184000
- ECL signal [4]: 380
- ECL signal [5]: 251
- ECL signal [6]: 390
- ECL signal [7]: 322
- ECL signal [8]: 561
- ECL signal [9]: 454

B2: Fab VH1-46_IGHD6-6*01_IGHJ1*01 S102A/S103P/S104F/H111F (APFF) & L6_IGKJ1*01 S30W (Fab, V domains shown)
VH: QVQLVQSGAEVKKPGASVKVSCKASGYTFTSYYMHWVRQAPGQGLEWMGIINPSGGSTSYAQKFQGRVTMTRDTSTSTVYMELSSLRSEDTAVYYCAREEYAPFSAEYFQFWGQGTLVTVSS
VL: EIVLTQSPATLSLSPGERATLSCRASQSVWSYLAWYQQKPGQAPRLLIYDASNRATGIPARFSGSGSGTDFTLTISSLEPEDFAVYYCQQRSNWPPWTFGQGTKVEIKR
notes: Tested as Fab made in E. coli: VH joined to CH1 from Plasmid A (His6 and Flag tags), VL joined to kappa CL from Plasmid C; also called APFF / S30W
- ECL signal [10]: 471
- ECL signal [11]: 399
- ECL signal [12]: 191000
- ECL signal [13]: 372
- ECL signal [14]: 289
- ECL signal [15]: 500
- ECL signal [16]: 398
- ECL signal [17]: 542
- ECL signal [18]: 342

B3: Fab VH1-46_IGHD6-6*01_IGHJ1*01 S102A/S103P/S104F/H111F (APFF) & L6_IGKJ1*01 S30G (Fab, V domains shown)
VH: QVQLVQSGAEVKKPGASVKVSCKASGYTFTSYYMHWVRQAPGQGLEWMGIINPSGGSTSYAQKFQGRVTMTRDTSTSTVYMELSSLRSEDTAVYYCAREEYAPFSAEYFQFWGQGTLVTVSS
VL: EIVLTQSPATLSLSPGERATLSCRASQSVGSYLAWYQQKPGQAPRLLIYDASNRATGIPARFSGSGSGTDFTLTISSLEPEDFAVYYCQQRSNWPPWTFGQGTKVEIKR
notes: Tested as Fab made in E. coli: VH joined to CH1 from Plasmid A (His6 and Flag tags), VL joined to kappa CL from Plasmid C; also called APFF / S30G
- ECL signal [19]: 393
- ECL signal [20]: 355
- ECL signal [21]: 180000
- ECL signal [22]: 382
- ECL signal [23]: 404
- ECL signal [24]: 427
- ECL signal [25]: 387
- ECL signal [26]: 485
- ECL signal [27]: 369

B4: Fab VH1-46_IGHD6-6*01_IGHJ1*01 S102A/S103P/S104F/H111F (APFF) & L6_IGKJ1*01 S30Q (Fab, V domains shown)
VH: QVQLVQSGAEVKKPGASVKVSCKASGYTFTSYYMHWVRQAPGQGLEWMGIINPSGGSTSYAQKFQGRVTMTRDTSTSTVYMELSSLRSEDTAVYYCAREEYAPFSAEYFQFWGQGTLVTVSS
VL: EIVLTQSPATLSLSPGERATLSCRASQSVQSYLAWYQQKPGQAPRLLIYDASNRATGIPARFSGSGSGTDFTLTISSLEPEDFAVYYCQQRSNWPPWTFGQGTKVEIKR
notes: Tested as Fab made in E. coli: VH joined to CH1 from Plasmid A (His6 and Flag tags), VL joined to kappa CL from Plasmid C; also called APFF / S30Q
- ECL signal [28]: 342
- ECL signal [29]: 339
- ECL signal [30]: 203000
- ECL signal [31]: 243
- ECL signal [32]: 262
- ECL signal [33]: 400
- ECL signal [34]: 353
- ECL signal [35]: 423
- ECL signal [36]: 298
